For two molecules, Kd results are on record in patent publication US20120276098A1 (GlaxoSmithKline, published 2012).

To fix the notation:
B1: Rat serum albumin (other, UniProt P02770 25-608, looked up)
chain: EAHKSEIAHRFKDLGEQHFKGLVLIAFSQYLQKCPYEEHIKLVQEVTDFAKTCVADENAENCDKSIHTLFGDKLCAIPKLRDNYGELADCCAKQEPERNECFLQHKDDNPNLPPFQRPEAEAMCTSFQENPTSFLGHYLHEVARRHPYFYAPELLYYAEKYNEVLTQCCTESDKAACLTPKLDAVKEKALVAAVRQRMKCSSMQRFGERAFKAWAVARMSQRFPNAEFAEITKLATDVTKINKECCHGDLLECADDRAELAKYMCENQATISSKLQACCDKPVLQKSQCLAEIEHDNIPADLPSIAADFVEDKEVCKNYAEAKDVFLGTFLYEYSRRHPDYSVSLLLRLAKKYEATLEKCCAEGDPPACYGTVLAEFQPLVEEPKNLVKTNCELYEKLGEYGFQNAVLVRYTQKAPQVSTPTLVEAARNLGRVGTKCCTLPEAQRLPCVEDYLSAILNRLCVLHEKTPVSEKVTKCCSGSLVERRPCFSALTVDETYVPKEFKAETFTFHSDICTLPDKEKQIKKQTALAELVKHKPKATEDQLKTVMGDFAQFVDKCCKAADKDNCFATEGPNLVARSKEALA
notes: also called RSA
B2: DAT 0120: GLP-1 (7-37) A8G, helical linker, DOM7h-14 fusion (other)
chain: HGEGTFTSDVSSYLEGQAAKEFIAWLVKGRGKEAAAKEAAAKEAAAKELAAKEAAAKEAAAKEAAAKELAADIQMTQSPSSLSASVGDRVTITCRASQWIGSQLSWYQQKPGKAPKLLIMWRSSLQSGVPSRFSGSGSGTDFTLTISSLQPEDFATYYCAQGAALPRTFGQGTKVEIKR
notes: also called DAT 0120: GLP-1 A8G, helical linker, DOM7h-14 fusion

Holding throughout (assay): SPR (Biacore), serum albumin immobilised on CM5 chip, fusion flowed at 16 nM to 2 uM
Assay [1] addresses DAT 0117: Exendin 4, helical linker, DOM7h-14 fusion.
Assay [2] concerns the target B1.
For assay [3], the target named is T1, Human serum albumin (human, UniProt P02768 25-609).
T1 construct: also called HSA

The target in assay [4] is T2, Mouse serum albumin (mouse, UniProt P07724 25-608).
T2 construct: also called MSA
T2 sequence (P07724 25-608 limits assumed): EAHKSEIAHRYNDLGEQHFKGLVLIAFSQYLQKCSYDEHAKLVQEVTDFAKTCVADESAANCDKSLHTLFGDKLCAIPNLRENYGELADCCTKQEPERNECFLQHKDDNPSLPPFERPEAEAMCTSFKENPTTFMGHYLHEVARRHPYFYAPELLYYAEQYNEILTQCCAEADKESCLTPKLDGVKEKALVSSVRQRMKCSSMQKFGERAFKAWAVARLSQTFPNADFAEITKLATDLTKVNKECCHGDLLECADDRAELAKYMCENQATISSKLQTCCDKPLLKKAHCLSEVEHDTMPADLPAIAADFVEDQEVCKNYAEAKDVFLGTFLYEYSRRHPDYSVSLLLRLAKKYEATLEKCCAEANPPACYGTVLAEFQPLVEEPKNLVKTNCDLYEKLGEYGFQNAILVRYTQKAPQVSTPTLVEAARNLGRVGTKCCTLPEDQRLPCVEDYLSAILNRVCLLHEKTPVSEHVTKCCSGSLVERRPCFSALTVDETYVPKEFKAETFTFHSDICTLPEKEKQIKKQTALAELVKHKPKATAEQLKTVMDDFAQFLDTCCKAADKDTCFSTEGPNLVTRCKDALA

For orientation: Kd means a measure of binding affinity in units of concentration. In the case of B1, binding in assay [1] was characterised by a dissociation constant (Kd) of 0.7 µM. This counts as sub-micromolar.

B2: the Kd came out at 0.8 µM in assay [2], 0.11 µM in assay [3] and 0.11 µM in assay [4].
